PMC4775355 (Cancer research, 2016)

Molecular target: the molecule itself
Assay: cross-linking

B1: Flag-PKM2 Y148F mutant (PKM2^Y148F) (enzyme)
chain: not shown
stoichiometry N: 4
